From article PMC12822413, “TSHR‐Targeting Nucleic Acid Aptamer Treats Graves' Ophthalmopathy via Novel Allosteric Inhibition”

Molecular target: recombinant TSHR-His (UniProt P16473 21-414)
Test: SPR; 5 mM Mg2+; kon 7.686e4 M-1s-1, koff 9.023e-4 s-1; 25 C; Flow: DPBS, 5 mM MgCl2, 4.5 g/L glucose, 0.1 mg/mL yeast tRNA, 1 mg/mL BSA, 4 C 30 min; SPR: DPBS, 5 mM Mg2+, pH 7.4, 25 C
Settings: protein: commercial; tags: His; label: FAM (flow); biotin (pull-down); stem-loops (NUPACK predicted)

Sequence of recombinant TSHR-His (P16473 21-414): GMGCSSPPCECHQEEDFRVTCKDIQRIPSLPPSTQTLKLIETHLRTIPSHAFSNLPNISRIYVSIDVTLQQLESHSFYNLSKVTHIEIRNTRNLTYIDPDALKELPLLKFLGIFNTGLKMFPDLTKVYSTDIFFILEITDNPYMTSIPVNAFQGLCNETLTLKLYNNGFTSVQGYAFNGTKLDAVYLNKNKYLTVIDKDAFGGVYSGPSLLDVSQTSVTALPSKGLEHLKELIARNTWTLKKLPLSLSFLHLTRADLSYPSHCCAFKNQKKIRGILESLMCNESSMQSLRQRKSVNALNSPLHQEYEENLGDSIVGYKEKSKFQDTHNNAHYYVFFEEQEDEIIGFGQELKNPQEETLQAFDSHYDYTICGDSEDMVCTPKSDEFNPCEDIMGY

B1: YC3 (structured_DNA)
DNA: ACCGACCGTGCTGGACTCAGATGAACAATCGATGGAAGATTGGGTCGCACCGGCCTCTTTCACTATGAGCGAGCCTGGCG
Q: With B1 as the binder, how does the Kd read?
A: 11.7 nM
